{"source": "patent US20120053225", "key": {"[1]": {"target": "HA-tagged AKT (wild type), P31749"}, "[2]": {"target": "HA-tagged AKT Y176F mutant, P31749"}, "[3]": {"target": "HA-tagged AKT deletion construct lacking the PH domain, P31749"}}}
{"protein": "purified tagged Ack1 expressed in HEK293T cells (protein) MQPEEGTGWLLELLSEVQLQQYFLRLRDDLNVTRLSHFEYVKNEDLEKIGMGRPGQRRLWEAVKRRKALCKRKSWMSKVFSGKRLEAEFPPHHSQSTFRKTSPAPGGPAGEGPLQSLTCLIGEKDLRLLEKLGDGSFGVVRRGEWDAPSGKTVSVAVKCLKPDVLSQPEAMDDFIREVNAMHSLDHRNLIRLYGVVLTPPMKMVTELAPLGSLLDRLRKHQGHFLLGTLSRYAVQVAEGMGYLESKRFIHRDLAARNLLLATRDLVKIGDFGLMRALPQNDDHYVMQEHRKVPFAWCAPESLKTRTFSHASDTWMFGVTLWEMFTYGQEPWIGLNGSQILHKIDKEGERLPRPEDCPQDIYNVMVQCWAHKPEDRPTFVALRDFLLEAQPTDMRALQDFEEPDKLHIQMNDVITVIEGRAENYWWRGQNTRTLCVGPFPRNVVTSVAGLSAQDISQPLQNSFIHTGHGDSDPRHCWGFPDRIDELYLGNPMDPPDLLSVELSTSRPPQHLGGVKKPTYDPVSEDQDPLSSDFKRLGLRKPGLPRGLWLAKPSARVPGTKASRGSGAEVTLIDFGEEPVVPALRPCAPSLAQLAMDACSLLDETPPQSPTRALPRPLHPTPVVDWDARPLPPPPAYDDVAQDEDDFEICSINSTLVGAGVPAGPSQGQTNYAFVPEQARPPPPLEDNLFLPPQGGGKPPSSAQTAEIFQALQQECMRQLQAPAGSPAPSPSPGGDDKPQVPPRVPIPPRPTRPHVQLSPAPPGEEETSQWPGPASPPRVPPREPLSPQGSRTPSPLVPPGSSPLPPRLSSSPGKTMPTTQSFASDPKYATPQVIQAPGPRAGPCILPIVRDGKKVSSTHYYLLPERPSYLERYQRFLREAQSPEEPTPLPVPLLLPPPSTPAPAAPTATVRPMPQAALDPKANFSTNNSNPGARPPPPRATARLPQRGCPGDGPEAGRPADKIQMAMVHGVTTEECQAALQCHGWSVQRAAQYLKVEQLFGLGLRPRGECHKVLEMFDWNLEQAGCHLLGSWGPAHHKR", "values": [{"measurement": "AKT Tyr176-phosphorylation (in vitro phosphorylation of purified AKT by Ack1, immunoblot)", "setting": "[1]", "value": "purified Ack1 interacted directly with AKT resulting in AKT Tyr176-phosphorylation"}]}
{"protein": "endogenous Ack1 of mouse embryo fibroblasts (protein) MQPEEGTGWLLELLSEVQLQQYFLRLRDDLNITRLSHFEYVKNEDLEKIGMGRPGQRRLWEAVKRRKAMCKRKSWMSKVFSGKRLEAEFPSQHSQSTFRKPSPTPGSLPGEGTLQSLTCLIGEKDLRLLEKLGDGSFGVVRRGEWDAPAGKTVSVAVKCLKPDVLSQPEAMDDFIREVNAMHSLDHRNLIRLYGVVLTLPMKMVTELAPLGSLLDRLRKHQGHFLLGTLSRYAVQVAEGMAYLESKRFIHRDLAARNLLLATRDLVKIGDFGLMRALPQNDDHYVMQEHRKVPFAWCAPESLKTRTFSHASDTWMFGVTLWEMFTYGQEPWIGLNGSQILHKIDKEGERLPRPEDCPQDIYNVMVQCWAHKPEDRPTFVALRDFLLEAQPTDMRALQDFEEPDKLHIQMNDVITVIEGRAENYWWRGQNTRTLCVGPFPRNVVTSVAGLSAQDISQPLQNSFIHTGHGDSDPRHCWGFPDRIDELYLGNPMDPPDLLSVELSTSRPTQHLGRVKREPPPRPPQPAIFTQKTTYDPVSEDPDPLSSDFKRLGLRKPALPRGLWLAKPSARVPGTKADRSSGGEVTLIDFGEEPVVPTPRPCAPSLAQLAMDACSLLDKTPPQSPTRALPRPLHPTPVVDWDARPLPPPPAYDDVAQDEDDFEVCSINSTLVGAGLPAGPSQGETNYAFVPEQAQMPPALEDNLFLPPQGGGKPPSSVQTAEIFQALQQECMRQLQVPTGQLTPSPTPGGDDKPQVPPRVPIPPRPTRPRVELSPAPSGEEETSRWPGPASPPRVPPREPLSPQGSRTPSPLVPPGSSPLPHRLSSSPGKTMPTTQSFASDPKYATPQVIQAPGPRAGPCILPIVRDGRKVSSTHYYLLPERPPYLERYQRFLREAQSPEEPAALPVPPLLPPPSTPAPAAPTATVRPMPQAAPDPKANFSTNNSNPGARPPSLRAAARLPQRGCPGDGQEAARPADKVQMLQAMVHGVTTEECQAALQSHSWSVQRAAQYLKVEQLFGLGLRPRVECHKVLEMFDWNLEQAGCHLLGSCGPAHHKR", "values": [{"measurement": "AKT Tyr/Ser-phosphorylations (IP and immunoblot)", "setting": "[2]", "value": "decreased AKT Tyr/Ser-phosphorylations"}]}
{"protein": "activated Ack1 (caAck, L487F mutant) (protein) MQPEEGTGWLLELLSEVQLQQYFLRLRDDLNVTRLSHFEYVKNEDLEKIGMGRPGQRRLWEAVKRRKALCKRKSWMSKVFSGKRLEAEFPPHHSQSTFRKTSPAPGGPAGEGPLQSLTCLIGEKDLRLLEKLGDGSFGVVRRGEWDAPSGKTVSVAVKCLKPDVLSQPEAMDDFIREVNAMHSLDHRNLIRLYGVVLTPPMKMVTELAPLGSLLDRLRKHQGHFLLGTLSRYAVQVAEGMGYLESKRFIHRDLAARNLLLATRDLVKIGDFGLMRALPQNDDHYVMQEHRKVPFAWCAPESLKTRTFSHASDTWMFGVTLWEMFTYGQEPWIGLNGSQILHKIDKEGERLPRPEDCPQDIYNVMVQCWAHKPEDRPTFVALRDFLLEAQPTDMRALQDFEEPDKLHIQMNDVITVIEGRAENYWWRGQNTRTLCVGPFPRNVVTSVAGLSAQDISQPLQNSFIHTGHGDSDPRHCWGFPDRIDELYFGNPMDPPDLLSVELSTSRPPQHLGGVKKPTYDPVSEDQDPLSSDFKRLGLRKPGLPRGLWLAKPSARVPGTKASRGSGAEVTLIDFGEEPVVPALRPCAPSLAQLAMDACSLLDETPPQSPTRALPRPLHPTPVVDWDARPLPPPPAYDDVAQDEDDFEICSINSTLVGAGVPAGPSQGQTNYAFVPEQARPPPPLEDNLFLPPQGGGKPPSSAQTAEIFQALQQECMRQLQAPAGSPAPSPSPGGDDKPQVPPRVPIPPRPTRPHVQLSPAPPGEEETSQWPGPASPPRVPPREPLSPQ", "values": [{"measurement": "Tyr-phosphorylation of AKT deletion constructs (IP with HA antibodies, immunoblot with pTyr antibodies)", "setting": "[3]", "value": "AKT deletion construct lacking the PH domain (ΔPH-AKT) exhibited significant decrease in Tyr-phosphorylation"}]}
